For experiment [1], the target named is nSh[change], Spike without transmembrane and cytoplasmic domains, with histidine tag (SARS coronavirus (Frankfurt isolate)) (UniProt P59594). Briefly: self-association; non-heated SDS-PAGE and western blot. (Immunoblotting shows a protein as a band on a membrane.)
Experiment [2] shares this target. Kind of experiment: self-association; western blot of cell lysate.

Turning to “nSh[change], Spike without transmembrane and cytoplasmic domains, with histidine tag (from UniProt P59594 14-1195)”, the efficiency of oligomerization in experiment [1] is under 10%. In experiment [2], this substance registered a frequency of monomeric form of 90% and a frequency of oligomeric form of 10%.

The values above are taken from patent US20060257852A1 (priority 2003, published 2006).
